Laboratory results as given in patent US20200392528A1, “IMPROVED PLANT EPSP SYNTHASES AND METHODS OF USE” (PIONEER HI-BRED INTERNATIONAL, INC., priority 2017, published 2020).
Where two headings read alike, the source gives them in different places.

What was measured:
[1] = biological target: EPSPS from Agrobacterium sp. strain CP4 (Agrobacterium sp., UniProt Q9R4E4); assay: kgly: enzyme turnover at 30 μM PEP and S3P, 1 mM glyphosate, CP4 EPSPS; type: biochemical
From the text: A customized parameter for predicting performance in the treated plant that would be a more accurate representation than kcat/Km*Ki. […] However, kcat/Km*Ki may be inadequate for predicting the reaction velocity under the conditions of the application (plants sprayed with glyphosate) because it may neglect concentrations of substrate and inhibitor, factors that are not intrinsic to the enzyme, but on which the reaction rate depends. Therefore, libraries derived from C1 on in FIG. 2 were evaluated with a single rate measurement designed to take all factors in the rate equation for competitive inhibition into account. […] Glyphosate was included at 1 mM, a concentration attainable in tissues, especially meristems, receiving metabolite flow from treated leaves. The pH (7.0), ionic strength (100 mM KCl) and co-solvent concentration (5% ethylene glycol) were also intended to mimic in vivo conditions. The unit for the parameter is reaction rate (μM·min^−1) per enzyme concentration (μM), or min^−1, describing the enzyme turnover under application conditions, which we abbreviate as “kgly”. Although individual kinetic parameters for key variants were obtained, kgly was adopted a parameter needed both for medium throughput screening and for ultimate evaluation of fitness.

[2] = biological target: CP4 EPSPS (Agrobacterium sp., UniProt Q9R4E4); assay: substrate saturation kinetic analysis (kcat, Km, Ki); type: biochemical, Agrobacterium sp. strain CP4
Method: EPSPS activity was determined by quantifying the phosphate generated from the EPSPS reaction. Release of inorganic phosphate was coupled to its reaction with 2-amino-6-mercapto-7-methylpurine ribonucleoside (MESG), catalyzed by purine nucleoside phosphorylase, according to previously described protocols. To determine the kcat gly, enzyme preparations were normalized to 0.1 mg/ml and four- to six-microliter aliquots of normalized enzyme were added to the wells of a low UV-absorbing 96-well assay plate (Greiner UV-Star). Reactions were started with the addition of 2×147 μl of reaction mixture containing 25 mM Hepes, pH 7.0, 100 mM KCl, 5% ethylene glycol, 30 μM each of PEP and S3P, 0.15 mM MESG, 1.5 U/ml purine nucleoside phosphorylase (Sigma N8264) and 1 mM glyphosate. Absorbance was monitored at 4 sec intervals for 50 sec with a Spectramax plate reader (Molecular Devices). […] Division by the enzyme concentration (0.04 to 0.1 uM, depending on activity) yields “kcat gly” in units of min^−1.
Combinatorial shuffling, maize native EPSPS—The mutations discovered were used to construct a combinatorial library designed to explore combinations of the desensitizing mutations in novel sequence contexts provided by the newly identified neutral mutations. Note that the amino acid position numbering in this Example 10 refers to the relative position of native maize EPSPS without the N-terminal Met. Therefore, G101A in this Example would be G102A in reference to SEQ ID NO: 1, wherein the maize EPSPS sequence has a Met added at the N-terminal. The diversity used was the same with the addition of G101A, T102 (IALGV) and P106(WA). In all, 43 substitutions at 29 positions were selected. The library was synthesized entirely from oligonucleotides, using the known technique of synthetic shuffling and was termed NatFS (Native, fully synthetic). The vector DNA of the library was transformed into the BL21(DE3) Tuner-AroA knockout strain and the cells were plated onto M9 medium containing either 30 mM glyphosate and 30 μM of the lac operon inducer isopropyl β-D-1-thiogalactopyranoside (IPTG) or 50 mM glyphosate and no IPTG. The 184 colonies that grew on either plate were picked and subjected to a second tier of screening in which EPSPS proteins were purified and activity measured at high (200 μM) and low (50 μM) PEP and S3P, with or without 10 μM glyphosate. Selected variants were subjected to substrate saturation kinetic analysis.

B1: CP4 EPSPS: Class II EPSPS from Agrobacterium sp. strain CP4 (protein, UniProt Q9R4E4 1-455, looked up)
3-phosphoshikimate …: MSHGASSRPATARKSSGLSGTVRIPGDKSISHRSFMFGGLASGETRITGLLEGEDVINTGKAMQAMGARIRKEGDTWIIDGVGNGGLLAPEAPLDFGNAATGCRLTMGLVGVYDFDSTFIGDASLTKRPMGRVLNPLREMGVQVKSEDGDRLPVTLRGPKTPTPITYRVPMASAQVKSAVLLAGLNTPGITTVIEPIMTRDHTEKMLQGFGANLTVETDADGVRTIRLEGRGKLTGQVIDVPGDPSSTAFPLVAALLVPGSDVTILNVLMNPTRTGLILTLQEMGADIEVINPRLAGGEDVADLRVRSSTLKGVTVPEDRAPSMIDEYPILAVAAAFAEGATVMNGLEELRVKESDRLSAVANGLKLNGVDCDEGETSLVVRGRPDGKGLGNASGAAVATHLDHRIAMSFLVMGLVSENPVTVDDATMIATSFPEFMDLMAGLGAKIELSDTKAA
kgly [1]: 176 ± 1.6 min⁻¹
kcat ([2]; CP4 EPSPS): 6.85 ± 0.083 s⁻¹
Ki ([2]; Ki for glyphosate): 1.97 ± 0.276 mM
Km ([2]; apparent Km, PEP present at 10 times its Km, read-out: Km S3P): 5.2 ± 0.5 µM
Km ([2]; apparent Km, S3P present at 10 times its Km, read-out: Km PEP): 15.5 ± 0.4 µM
kcat/Km*Ki ([2]; calculated with Km for PEP): 52240
Km ([2]; read-out: Km for PEP): 15.5 µM
